# “And” between values parts separate entries of the source, which are not always exact repeats. Equal entries are not always repeated. Where two headings read alike, the source gives them in different places. Square brackets hold non-standard residues; d marks the D form. Peptide text beside a SMILES is read from it. * marks the point of attachment. DOTA = O=C(O)CN1CCN(CC(=O)O)CCN(CC(=O)*)CCN(CC(=O)O)CC1; Met(O2) = CS(=O)(=O)CC[C@H](N)C(=O)O; 2Thi = N[C@@H](Cc1cccs1)C(=O)O
# Key:
# [1] = type: physicochemical
# Protocol: A solution of purified ^177Lu-radioconjugate (around 1 MBq) or ^68Ga-radioconjugate (around 10 MBq) in 100 µL of 0.1M DPBS buffer was added into of 900 µL of 0.1 M DPBS buffer and 1000 µL of N-octanol (saturated with each other), vigorously stirred and centrifuged at 13,500 rpm for 5 min. Then, similar aliquots of both separated phases were taken for radioactivity measurement using a well-type NaI(Tl) detector. The lipophilicity values were expressed as the decimal logarithm of the distribution coefficient, D, which was calculated as a ratio of the radioconjugate radioactivity in the organic phase to that in the aqueous phase. Each experiment was performed in triplicate and the obtained values averaged. In parallel, the aqueous phases were analyzed by HPLC to confirm the stability of the studied radioconjugate during the experiment time.
# human NK1 receptor = target: T1, human NK1 receptor (Homo sapiens, UniProt P25103); assay: Saturation binding of 177Lu-radioconjugates to hNK1R-CHO cells; conditions: maximal binding concentration, 60 min at 37 °C, specific activity 5 MBq/nmol
# T1 construct: expressed in transfected cells; host or cells: CHO-K1 (hNK1R-CHO), gift from Dr. Attila Keresztes and Dr. John M. Streicher
# T1 sequence (P25103 whole entry): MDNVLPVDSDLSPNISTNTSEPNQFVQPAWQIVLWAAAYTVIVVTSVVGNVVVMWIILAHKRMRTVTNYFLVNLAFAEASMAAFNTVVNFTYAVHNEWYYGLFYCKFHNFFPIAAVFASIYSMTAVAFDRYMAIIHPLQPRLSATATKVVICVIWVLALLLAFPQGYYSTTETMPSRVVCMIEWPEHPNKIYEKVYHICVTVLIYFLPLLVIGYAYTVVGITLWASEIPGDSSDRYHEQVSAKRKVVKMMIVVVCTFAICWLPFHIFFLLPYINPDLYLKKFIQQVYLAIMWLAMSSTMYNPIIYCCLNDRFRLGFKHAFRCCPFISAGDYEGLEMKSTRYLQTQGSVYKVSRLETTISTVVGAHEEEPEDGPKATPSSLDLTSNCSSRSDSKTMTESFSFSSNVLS
# Protocol: Cells were grown in Ham’s F12 medium (Biological Industries, Beit HaEmek, Israel) supplemented with 10% Foetal Bovine Serum (Biological Industries, Beit HaEmek, Israel) and 400 μg/mL G418 (Capricorn Scientific, Ebsdorfergrund, Germany), incubated in a humidified atmosphere with 5% CO2 at 37 °C.
# In brief, 10^5 cells per well were seeded into 24-well plates and incubated 24 h before the experiment. Just before the assay, the cells were washed with 37 °C Dulbecco’s PBS and then incubated with different concentrations of an analyzed radioconjugate (0.2–50 nM at a final volume) in the medium, with or without a 1000-fold molar excess of blocker (aprepitant or [Thi^8,Met(O2)^11]SP) in relation to the highest radioconjugate concentration applied for 60 min at 37 °C. After incubation time, the assay medium was collected into plastic tubes for radioactivity measurement and the cells were washed twice with ice-cold Dulbecco’s PBS. Subsequently, the cells were lysed using 1 M NaOH and collected into plastic tubes also for radioactivity measurement.
# The radioactivity of collected samples were measured using a Wizard2 2-Detector Gamma Counter (PerkinElmer, Waltham, MA, USA). […] The Kd and BMAX with standard deviations (SD), were calculated using the “One site-total and nonspecific binding” nonlinear regression curve fit (GraphPad Prism 8, GraphPad, San Diego, CA, USA).
structure (smiles),measurement,setting,value
"C[C@@H](O[C@H]1OCCN(Cc2nn(CCCCCCCCCCNC(=O)CN3CCN(CC(=O)O)CCN(CC(=O)O)CCN(CC(=O)O)CC3)c(=O)[nH]2)[C@H]1c1ccc(F)cc1)c1cc(C(F)(F)F)cc(C(F)(F)F)c1 [APT-Dec-DOTA, 2-(10-(2-(1,4,7-tris(carboxymethyl)-1,4,7,10-tetraazacyclododecan-10-yl)acetamido)decyl)-5-([(2R,3S)-2-((R)-1-[3,5-bis(trifluoromethyl)phenyl]ethoxy)-3-(4-fluorophenyl)morpholino]methyl)-1H-1,2,4-triazol-3-one]",logD,"[1]; pH 7.4, logD 68Ga-",1.6 ± 0.04
same,logD,"[1]; pH 7.4, logD 177Lu-",1.97 ± 0.02
"C[C@@H](O[C@H]1OCCN(Cc2nn(CCCCCCNC(=O)CN3CCN(CC(=O)O)CCN(CC(=O)O)CCN(CC(=O)O)CC3)c(=O)[nH]2)[C@H]1c1ccc(F)cc1)c1cc(C(F)(F)F)cc(C(F)(F)F)c1 [APT-Hex-DOTA, 2-(6-(2-(1,4,7-tris(carboxymethyl)-1,4,7,10-tetraazacyclododecan-10-yl)acetamido)hexyl)-5-([(2R,3S)-2-((R)-1-[3,5-bis(trifluoromethyl)phenyl]ethoxy)-3-(4-fluorophenyl)morpholino]methyl)-1H-1,2,4-triazol-3-one]",logD,"[1]; pH 7.4, logD 68Ga-",0.58 ± 0.03
same,logD,"[1]; pH 7.4, logD 177Lu-",1.23 ± 0.03
"C[C@@H](O[C@H]1OCCN(Cc2nn(CCCCCCCCNC(=O)CN3CCN(CC(=O)O)CCN(CC(=O)O)CCN(CC(=O)O)CC3)c(=O)[nH]2)[C@H]1c1ccc(F)cc1)c1cc(C(F)(F)F)cc(C(F)(F)F)c1 [APT-Oct-DOTA, 2-(8-(2-(1,4,7-tris(carboxymethyl)-1,4,7,10-tetraazacyclododecan-10-yl)acetamido)octyl)-5-([(2R,3S)-2-((R)-1-[3,5-bis(trifluoromethyl)phenyl]ethoxy)-3-(4-fluorophenyl)morpholino]methyl)-1H-1,2,4-triazol-3-one]",logD,"[1]; pH 7.4, logD 68Ga-",1.32 ± 0.04
same,logD,"[1]; pH 7.4, logD 177Lu-",1.64 ± 0.02
"CC(C)C[C@H](NC(=O)CNC(=O)[C@H](Cc1cccs1)NC(=O)[C@H](Cc1ccccc1)NC(=O)[C@H](CCC(N)=O)NC(=O)[C@H](CCC(N)=O)NC(=O)[C@@H]1CCCN1C(=O)[C@H](CCCCN)NC(=O)[C@@H]1CCCN1C(=O)[C@H](CCCNC(=N)N)NC(=O)CN1CCN(CC(=O)O)CCN(CC(=O)O)CCN(CC(=O)O)CC1)C(=O)N[C@@H](CCS(C)(=O)=O)C(N)=O [[^177Lu]Lu-DOTA-[Thi^8,Met(O2)^11]SP, metal not drawn] ({DOTA}-RPKPQQF[2Thi]GL[Met(O2)]-NH2; N-terminus and C-terminus assumed)",BMAX ± SD,human NK1 receptor,0.38 nM and 0.38 ± 0.02 nM

# — paper PMC8949964, “In Vitro Biological Evaluation of Aprepitant Based ^177Lu-Radioconjugates” (Pharmaceutics, 2022)
